Drawing on publication PMC8265312, this text covers Kd and percent reduction of cell-bound PspA by GAPDH70 for one substance.

For assay [1], the target named is recombinant human GAPDH (human) (UniProt P04406). Put plainly: SPR.
Assay [2] concerns the target endogenous huGAPDH on the surface of dying A549 cells (human (endogenous in A549)) (UniProt P04406). Put plainly: competition of binding to cells, cell-bound PspA detected by immunoblot. On the technique in general: Immunoblotting shows a protein as a band on a membrane.

What is called Kd is the constant that tells how readily two partners part at equilibrium. On to “recombinant His-tagged PspA (pneumococcal surface protein A) composed of the αHD and PRD (domain or fragment)”, for which the Kd in assay [1] stood at 2950 nM. Moreover, the percent reduction of cell-bound PspA by GAPDH70 in assay [2] worked out at 50%.
